1 molecule from patent US20240043567A1 (published 2024) can be followed below.

This assay addresses QP3732 (Her2M2-Fc). In words: ELISA. A general note: ELISA stands for enzyme-linked immunosorbent assay.

B1: pertuzumab (antibody, V domains shown)
VH: EVQLVESGGGLVQPGGSLRLSCAASGFTFTDYTMDWVRQAPGKGLEWVADVNPNSGGSIYNQRFKGRFTLSVDRSKNTLYLQMNSLRAEDTAVYYCARNLGPSFYFDYWGQGTLVTVSS
VL: DIQMTQSPSSLSASVGDRVTITCKASQDVSIGVAWYQQKPGKAPKLLIYSASYRYTGVPSRFSGSGSGTDFTLTISSLQPEDFATYYCQQYYIYPYTFGQGTKVEIK
As a reminder, the EC50 is the concentration needed to bring the measured effect to its halfway point. Read a high EC50 as a need for much substance. Molecule B1 came in with an EC50 of 0.0307 µg/mL.
